According to the supplement of paper PMC10567573:

B1: OAS1 (parent)
chain: LQLGEGVEFDVLPAFDALGQLTGG

Variants of: B1
Test: protein stability index of a GFP-peptide fusion (GPS, HEK-293T) (PSI 1-6); higher = more stable
Details: c terminus: a fixed tail appended
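Also: lentivirally expressed fusions sorted by FACS into six bins by GFP to DsRed ratio, PSI derived from sequencing read proportions per bin multiplied by bin number.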

Variant	protein stability index
LQLGLGVEFDVLPAFDALGQLTGG	1.02
LQLGTGVEFDVLPAFDALGQLTGG	2.05
LQLGVGVEFDVLPAFDALGQLTGG	2.24
LQLGKGVEFDVLPAFDALGQLTGG	2.09
LQLGGGVEFDVLPAFDALGQLTGG	2.63
LQLGMGVEFDVLPAFDALGQLTGG	1.15
LQLGYGVEFDVLPAFDALGQLTGG	1.14
LQLGCGVEFDVLPAFDALGQLTGG	1.25
LQLGEGVEFDVLPAFDALGQLNGG	1.49
LQLGEGVEFDVLPAFDALGQLCGG	2.22
LQLGEGVEFDVLPAFDALGQLMGG	1.07
LQLGEGVEFDVLPAFDALGQLEGG	2.75
LQLGEGVEFDVLPAFDALGQLVGG	1.86
LQLGEGVEFDVLPAFDALGQLAGG	3.87
LQLGEGVEFDVLPAFDALGQLQGG	1.14
LQLGEGVEFDVLPAFDALGQLFGG	2.69
LQLGEGVEFDVLPAFDALGQLYGG	1.08
LQLGEGTEFDVLPAFDALGQLTGG	2.41
LQLGEGQEFDVLPAFDALGQLTGG	2.86
LQLGEGSEFDVLPAFDALGQLTGG	2.11
LQLGEGLEFDVLPAFDALGQLTGG	3.26
LQLGEGIEFDVLPAFDALGQLTGG	2.84
LQLGEGWEFDVLPAFDALGQLTGG	2.81
LQLGEGAEFDVLPAFDALGQLTGG	2.33

Variant	protein stability index
LQLGEGHEFDVLPAFDALGQLTGG	2.9
LQLGEGDEFDVLPAFDALGQLTGG	2.04
LQLGEGMEFDVLPAFDALGQLTGG	1.52
LQLGEGREFDVLPAFDALGQLTGG	2.27
LQLGEGYEFDVLPAFDALGQLTGG	1.55
LQLGEGVEFDVLPAFDALGELTGG	2.02
LQLGEGVEFDVLPAFDALGHLTGG	2.94
LQLGEGVEFDVLPAFDALGPLTGG	1.78
LQLGEGVEFDVLPAFDALGYLTGG	2.09
LQLGEGVEFDVLPAFDALGVLTGG	2.01
LQLGEGVEFDVLPAFDALGCLTGG	1.29
LQLGEGVEFDVLPAFDALGLLTGG	1.02
LQLGEGVEFDVLPAFDALGFLTGG	1.79
LQLGEGVEFDVLPAFDALGGLTGG	1.82
LQLGEGVEFDVLPAFDALFQLTGG	1.76
LQLGEGVEFDVLPAFDALNQLTGG	2
LQLGEGVEFDVLPAFDALVQLTGG	1.45
LQLGEGVEFDVLPAFDALPQLTGG	1.79
LQLGEGVEFDVLPAFDALYQLTGG	1.84
LQLGEGVEFDVLPAFDALEQLTGG	1.61
LQLGEGVEFDVLPAFDALLQLTGG	2.67
LQLGEGVEFDVLPAFDALHQLTGG	1.98
LQLGEGVEFDVLPAFDALDQLTGG	2.91
LQLGEGVEFDVLPAFDALTQLTGG	2.01

Variant	protein stability index
LQLGEGVEFDVLPAFDALGQHTGG	1.68
LQLGEGVEFDVLPAFDALGQKTGG	3.12
LQLGEGVEFDVLPAFDALGQYTGG	1.51
LQLGEGVEFDVLPAFDALGQSTGG	2.06
LQLGEGVEFDVLPAFDALGQFTGG	2.53
LQLGEGVEFDVLPAFDALGQTTGG	1.89
LQLGEGVEFDVLPAFDALGQPTGG	2.9
LQLGEGVEFDVLPAFDALGQETGG	2.5
LQLGEGVEFDVLPAFDALGQQTGG	3.62
LQLGEGVEFDVLPAFDALGQNTGG	2.32
LQLGEGVEFDVLPAFDALGQDTGG	3.43
LQLGEGVEFDVLPAFDRLGQLTGG	2.05
LQLGEGVEFDVLPAFDPLGQLTGG	2.41
LQLGEGVEFDVLPAFDILGQLTGG	1.53
LQLGEGVEFDVLPAFDYLGQLTGG	2.48
LQLGEGVEFDVLPAFDQLGQLTGG	1.61
LQLGEGVEFDVLPAFDNLGQLTGG	2.28
LQLGEGVEFDVLPAFDFLGQLTGG	3.94
LQLGEGVEFDVLPAFDMLGQLTGG	2.14
LQLGEGVEFDVLPAFDLLGQLTGG	1.9
EQLGEGVEFDVLPAFDALGQLTGG	4.58
SQLGEGVEFDVLPAFDALGQLTGG	3.65
TQLGEGVEFDVLPAFDALGQLTGG	3.33
YQLGEGVEFDVLPAFDALGQLTGG	2.31

Variant	protein stability index
FQLGEGVEFDVLPAFDALGQLTGG	2.06
CQLGEGVEFDVLPAFDALGQLTGG	2.95
AQLGEGVEFDVLPAFDALGQLTGG	3.26
LQLGEGVEFDLLPAFDALGQLTGG	1.96
LQLGEGVEFDILPAFDALGQLTGG	1.49
LQLGEGVEFDTLPAFDALGQLTGG	2.21
LQLGEGVEFDHLPAFDALGQLTGG	2.83
LQLGEGVEFDQLPAFDALGQLTGG	3.62
LQLGEGVEFDKLPAFDALGQLTGG	2.72
LQLGEGVEFDCLPAFDALGQLTGG	2
LQLGEGVEFDWLPAFDALGQLTGG	1.16
LQLGEGVEFDRLPAFDALGQLTGG	2.54
LQLGEGVEFDFLPAFDALGQLTGG	1.59
LQLGEGVEFHVLPAFDALGQLTGG	1.5
LQLGEGVEFCVLPAFDALGQLTGG	2.3
LQLGEGVEFFVLPAFDALGQLTGG	1.64
LQLGEGVEFKVLPAFDALGQLTGG	1.99
LQLGEGVEFPVLPAFDALGQLTGG	2.53
LQLGEGVEFGVLPAFDALGQLTGG	2.03
LQLGEGVEFSVLPAFDALGQLTGG	2
LQLGEGVEFDVLPKFDALGQLTGG	1.61
LQLGEGVEFDVLPRFDALGQLTGG	1.29
LQLGEGVEFDVLPNFDALGQLTGG	1.86
LQLGEGVEFDVLPYFDALGQLTGG	1.53

Variant	protein stability index
LQLGEGVEFDVLPPFDALGQLTGG	2.02
LQLGEGVEFDVLPDFDALGQLTGG	1.67
LQLGEGVEFDVLPSFDALGQLTGG	1.55
LQLGEGVEFDVLPVFDALGQLTGG	1.19
LQLGEGVEFDVLPAFDAAGQLTGG	3.35
LQLGEGVEFDVLPAFDAQGQLTGG	2.36
LQLGEGVEFDVLPAFDARGQLTGG	2.79
LQLGEGVEFDVLPAFDATGQLTGG	2.48
LQLGEGVEFDVLPAFDAVGQLTGG	2
LQLGEGVEFDVLPAFDAGGQLTGG	3.58
LQLGEGVEFDVLPAFDAMGQLTGG	1.66
LQLGEGVEFDVLPAFDAWGQLTGG	3.14
LQLGEGVEFDVRPAFDALGQLTGG	2.69
LQLGEGVEFDVYPAFDALGQLTGG	1.72
LQLGEGVEFDVDPAFDALGQLTGG	4.05
LQLGEGVEFDVWPAFDALGQLTGG	1.13
LQLGEGVEFDVTPAFDALGQLTGG	2.4
LQLGEGVEFDVKPAFDALGQLTGG	2.94
LQLGEGVEFDVMPAFDALGQLTGG	3.1
LQLGEGVEFDVGPAFDALGQLTGG	2.69
LQLGEGVEFDVLPASDALGQLTGG	2.73
LQLGEGVEFDVLPAEDALGQLTGG	3.57
LQLGEGVEFDVLPADDALGQLTGG	3.12
LQLGEGVEFDVLPAWDALGQLTGG	1.22

Variant	protein stability index
LQLGEGVEFDVLPAPDALGQLTGG	3.45
LQLGEGVEFDVLPAKDALGQLTGG	4.1
LQLGEGVEFDVLPAMDALGQLTGG	1.96
LQLGEGVEFDVLPAHDALGQLTGG	3.1
LQLGEGVEFDVLPAFDALGQLTHG	1.58
LQLGEGVEFDVLPAFDALGQLTAG	2.33
LQLGEGVEFDVLPAFDALGQLTFG	1.51
LQLGEGVEFDVLPAFDALGQLTIG	1.19
LQLGEGVEFDVLPAFDALGQLTEG	2.26
LQLGEGVEFDVLPAFDALGQLTDG	2.13
LQLGEGVEFDVLPAFDALGQLTMG	1.13
LQLGEGVEFDVLPAFDALGQLTYG	1.34
LQLGEGVEFDVLPAFDALGQLTKG	2.13
LQLGEGVEFDVLPAFDALGQLTSG	1.74
LQLGEGVEFDVLPAFQALGQLTGG	2.29
LQLGEGVEFDVLPAFIALGQLTGG	3.52
LQLGEGVEFDVLPAFCALGQLTGG	1.34
LQLGEGVEFDVLPAFPALGQLTGG	2.46
LQLGEGVEFDVLPAFRALGQLTGG	1.31
LQLNEGVEFDVLPAFDALGQLTGG	2.16
LQLFEGVEFDVLPAFDALGQLTGG	1.17
LQLREGVEFDVLPAFDALGQLTGG	1.78
LQLHEGVEFDVLPAFDALGQLTGG	2.25
LQLIEGVEFDVLPAFDALGQLTGG	1.88

Variant	protein stability index
LQLQEGVEFDVLPAFDALGQLTGG	2.75
LQLTEGVEFDVLPAFDALGQLTGG	2.28
LQLCEGVEFDVLPAFDALGQLTGG	1.38
LQLMEGVEFDVLPAFDALGQLTGG	2.36
LQLVEGVEFDVLPAFDALGQLTGG	1.7
LQLPEGVEFDVLPAFDALGQLTGG	2.36
LQLGEGVESDVLPAFDALGQLTGG	4.03
LQLGEGVEHDVLPAFDALGQLTGG	4.18
LQLGEGVEKDVLPAFDALGQLTGG	3.69
LQLGEGVEQDVLPAFDALGQLTGG	3.84
LQLGEGVEDDVLPAFDALGQLTGG	3.88
LELGEGVEFDVLPAFDALGQLTGG	3.58
LPLGEGVEFDVLPAFDALGQLTGG	3.18
LALGEGVEFDVLPAFDALGQLTGG	3.5
LTLGEGVEFDVLPAFDALGQLTGG	1.61
LQVGEGVEFDVLPAFDALGQLTGG	2.34
LQFGEGVEFDVLPAFDALGQLTGG	2.08
LQQGEGVEFDVLPAFDALGQLTGG	3.6
LQEGEGVEFDVLPAFDALGQLTGG	4.56
LQKGEGVEFDVLPAFDALGQLTGG	3.97
LQTGEGVEFDVLPAFDALGQLTGG	3.61
LQGGEGVEFDVLPAFDALGQLTGG	2.93
LQSGEGVEFDVLPAFDALGQLTGG	3.02
LQAGEGVEFDVLPAFDALGQLTGG	3.65

Variant	protein stability index
LQLGEMVEFDVLPAFDALGQLTGG	2.01
LQLGECVEFDVLPAFDALGQLTGG	1.83
LQLGEPVEFDVLPAFDALGQLTGG	2.94
LQLGEWVEFDVLPAFDALGQLTGG	1.74
LQLGETVEFDVLPAFDALGQLTGG	1.55
LQLGEQVEFDVLPAFDALGQLTGG	2.51
LQLGEHVEFDVLPAFDALGQLTGG	2.8
LQLGESVEFDVLPAFDALGQLTGG	2.39
LQLGENVEFDVLPAFDALGQLTGG	2.25
LQLGEKVEFDVLPAFDALGQLTGG	3
LQLGEGVEFDVLRAFDALGQLTGG	1.29
LQLGEGVEFDVLPAFDALGQLTGH	3.16
LQLGEGVEFDVLPAFDALGQLTGQ	1.98
LQLGEGVEFDVLPAFDALGQLTGK	2.49
LQLGEGVEFDVLPAFDALGQLTGI	3.05
LQLGEGVIFDVLPAFDALGQLTGG	2.37
LQLGEGVDFDVLPAFDALGQLTGG	2.54
LQLGEGVWFDVLPAFDALGQLTGG	1.98
LQLGEGVSFDVLPAFDALGQLTGG	1.99
LQLGEGVLFDVLPAFDALGQLTGG	1.5
